In US20210079056A1 (Bayer, published 2021):
Where “and” joins values, the source holds several entries; their conditions need not be identical. Equal values may be shown once.

T1: human NPRA (human, UniProt P16066 33-1061)
T1 sequence (looked up): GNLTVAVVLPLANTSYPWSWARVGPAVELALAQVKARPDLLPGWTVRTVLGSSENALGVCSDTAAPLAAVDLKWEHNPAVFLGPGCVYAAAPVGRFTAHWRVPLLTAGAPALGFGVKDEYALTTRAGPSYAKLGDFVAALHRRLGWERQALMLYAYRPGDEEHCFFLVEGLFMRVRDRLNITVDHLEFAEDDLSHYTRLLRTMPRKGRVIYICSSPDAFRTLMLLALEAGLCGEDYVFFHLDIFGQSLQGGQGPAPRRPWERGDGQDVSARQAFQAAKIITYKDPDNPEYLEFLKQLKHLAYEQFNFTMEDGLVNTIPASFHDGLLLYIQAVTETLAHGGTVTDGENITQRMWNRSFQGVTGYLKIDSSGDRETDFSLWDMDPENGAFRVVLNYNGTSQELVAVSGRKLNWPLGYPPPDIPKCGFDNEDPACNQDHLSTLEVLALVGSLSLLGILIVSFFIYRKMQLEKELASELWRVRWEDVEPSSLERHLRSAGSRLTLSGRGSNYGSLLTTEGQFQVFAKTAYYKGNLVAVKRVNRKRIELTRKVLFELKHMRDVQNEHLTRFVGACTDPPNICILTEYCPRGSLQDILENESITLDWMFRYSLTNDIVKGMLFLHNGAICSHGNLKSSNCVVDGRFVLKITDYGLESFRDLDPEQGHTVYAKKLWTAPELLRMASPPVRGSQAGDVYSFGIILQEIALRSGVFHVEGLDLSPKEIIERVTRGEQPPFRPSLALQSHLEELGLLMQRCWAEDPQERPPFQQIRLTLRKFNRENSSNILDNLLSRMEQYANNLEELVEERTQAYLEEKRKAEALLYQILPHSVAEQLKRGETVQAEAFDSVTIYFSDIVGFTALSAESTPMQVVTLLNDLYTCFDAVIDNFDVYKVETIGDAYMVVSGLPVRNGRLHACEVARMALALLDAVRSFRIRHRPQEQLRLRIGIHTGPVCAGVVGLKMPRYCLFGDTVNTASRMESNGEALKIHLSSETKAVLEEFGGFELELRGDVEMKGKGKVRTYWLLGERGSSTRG


molecular target: T1, human NPRA; test: cell-based or functional assay

Row | Binder | rel. logEC50 pcs 5 | average rel logEC50 | rel. logEC50* pcs | rel. logEC50 pcs 1 | rel. logEC50 pcs 2 | rel. logEC50 pcs 3 | rel. logEC50 pcs 7 | rel. logEC50 pcs 4 | rel. logEC50 pcs 6 | rel. logEC50 pcs 9
1 | TPP-10361 (antibody, human IgG1, lambda) heavy: not shown light: QSVLTQPPSVSGAPGQRVTISCTGSSSNIGAGYDVHWYQQLPGTAPKLLIYGSGSGSGSGSGSPDGGSGGSLRRSSCFGGRMDRIGAQSGLGCNSFRYGSYGSGGSGSGSGNRPSGVPDRFSGSKSGTSASLAITGLQAEDEADYYCQSYDSSLSGVVFGGGTKLTVLGQPKAAPSVTLFPPSSEELQANKATLVCLISDFYPGAVTVAWKADSSPVKAGVETTTPSKQSNNKYAASSYLSLTPEQWKSHRSYSCQVTHEGSTVEKTVAPTECS | -0.1 |  |  |  |  |  |  |  |  | 
2 | TPP-13061 (antibody, human IgG1, lambda) heavy: not shown light: QSVLTQPPSVSGAPGQRVTISCTGSSSNIGAGYDVHWYQQLPGTAPKLLIYGNSNRPSGVPDRFSGSKSGTSASLAITGLQAEDEADYYCQSYDSSLSGVVFGGGTKLTVLGQPKAAPSVTLFPPSSEELQANKATLVCLISDFYPGAVTVAWKADSSPVKAGVETTTPSKQSNNKYAASSYLSLTPEQWKSHRSYSCQVTHEGSTVEKTVAPTECS |  | -0.7 | -0.6 and -0.8 |  |  |  |  |  |  | 
3 | TPP-10290 (antibody) heavy: not shown light: QSVLTQPPSVSGAPGQRVTISCTGSSSNIGAGYDVHWYQQLPGTAPKLLIYGNSNRPSGVPDRFSGSKSGTSASLAITGLQAEDEADYYCQSYDSSLSGVVFGGGTKLTVLGQPKAAPSVTLFPPSSEELQANKATLVCLISDFYPGAVTVAWKADSSPVKAGVETTTPSKQSNNKYAASSYLSLTPEQWKSHRSYSCQVTHEGSTVEKTVAPTECS |  | -0.5 |  | -0.8 | -0.1 |  |  |  |  | 
4 | TPP-10274 (antibody) heavy: not shown light: QSVLTQPPSVSGAPGQRVTISCTGSSSNIGAGYDVHWYQQLPGTAPKLLIYGNSNRPSGVPDRFSGSKSGTSASLAITGLQAEDEADYYCQSYDSSLSGVVFGGGTKLTVLGQPKAAPSVTLFPPSSEELQANKATLVCLISDFYPGAVTVAWKADSSPVKAGVETTTPSKQSNNKYAASSYLSLTPEQWKSHRSYSCQVTHEGSTVEKTVAPTECS |  | -0.1 |  |  | -0.3 | -0.2 | 0 |  |  | 
5 | TPP-13054 (antibody, human IgG1, lambda) heavy: not shown light: QSVLTQPPSVSGAPGQRVTISCTGSSSNIGAGYDVHWYQQLPGTAPKLLIYGNSNRPSGVPDRFSGSKSGTSASLAITGLQAEDEADYYCQSYDSSLSGVVFGGGTKLTVLGQPKAAPSVTLFPPSSEELQANKATLVCLISDFYPGAVTVAWKADSSPVKAGVETTTPSKQSNNKYAASSYLSLTPEQWKSHRSYSCQVTHEGSTVEKTVAPTECS |  | -0.8 | -0.7 and -0.8 |  |  |  |  |  |  | 
6 | TPP-10294 (antibody, human IgG1, lambda) heavy: not shown light: QSVLTQPPSVSGAPGQRVTISCTGSSSNIGAGYDVHWYQQLPGTAPKLLIYGNSNRPSGVPDRFSGSKSGTSASLAITGLQAEDEADYYCQSYDSSLSGVVFGGGTKLTVLGQPKAAPSVTLFPPSSEELQANKATLVCLISDFYPGAVTVAWKADSSPVKAGVETTTPSKQSNNKYAASSYLSLTPEQWKSHRSYSCQVTHEGSTVEKTVAPTECS |  | -0.3 | -0.5 and -0.6 and -0.4 |  |  |  | 0 | -0.2 |  | 
7 | TPP-10282 (antibody, human IgG1, lambda) heavy: not shown light: QSVLTQPPSVSGAPGQRVTISCTGSSSNIGAGYDVHWYQQLPGTAPKLLIYGNSNRPSGVPDRFSGSKSGTSASLAITGLQAEDEADYYCQSYDSSLSGVVFGGGTKLTVLGQPKAAPSVTLFPPSSEELQANKATLVCLISDFYPGAVTVAWKADSSPVKAGVETTTPSKQSNNKYAASSYLSLTPEQWKSHRSYSCQVTHEGSTVEKTVAPTECS | 0.2 | 0.1 |  | 0.3 | -0.2 |  |  | 0.1 |  | 
8 | TPP-10765 (antibody, human IgG1, lambda) heavy: not shown light: QSVLTQPPSVSGAPGQRVTISCTGSSSNIGAGYDVHWYQQLPGTAPKLLIYGNSNRPSGVPDRFSGSKSGTSASLAITGLQAEDEADYYCQSYDSSLSGVVFGGGTKLTVLGQPKAAPSVTLFPPSSEELQANKATLVCLISDFYPGAVTVAWKADSSPVKAGVETTTPSKQSNNKYAASSYLSLTPEQWKSHRSYSCQVTHEGSTVEKTVAPTECS | -0.9 | -0.4 |  |  |  |  | 0.2 |  | -0.4 | 
9 | TPP-13230 (antibody) heavy: not shown light: QSVLTQPPSVSGAPGQRVTISCTGSSSNIGAGYDVHWYQQLPGTAPKLLIYGNSNRPSGVPDRFSGSKSGTSASLAITGLQAEDEADYYCQSYDSSLSGVVFGGGTKLTVLGQPKAAPSVTLFPPSSEELQANKATLVCLISDFYPGAVTVAWKADSSPVKAGVETTTPSKQSNNKYAASSYLSLTPEQWKSHRSYSCQVTHEGSTVEKTVAPTECS |  |  |  |  |  |  |  |  |  | -0.3
10 | TPP-10845 (antibody, human IgG1, lambda) heavy: not shown light: QSVLTQPPSVSGAPGQRVTISCTGSSSNIGAGYDVHWYQQLPGTAPKLLIYGNSNRPSGVPDRFSGSKSGTSASLAITGLQAEDEADYYCQSYDSSLSGVVFGGGTKLTVLGQPKAAPSVTLFPPSSEELQANKATLVCLISDFYPGAVTVAWKADSSPVKAGVETTTPSKQSNNKYAASSYLSLTPEQWKSHRSYSCQVTHEGSTVEKTVAPTECS | -0.4 | -0.6 |  |  |  |  |  |  | -0.8 | 
11 | TPP-10283 (antibody, human IgG1, lambda) heavy: not shown light: QSVLTQPPSVSGAPGQRVTISCTGSSSNIGAGYDVHWYQQLPGTAPKLLIYGNSNRPSGVPDRFSGSKSGTSASLAITGLQAEDEADYYCQSYDSSLSGVVFGGGTKLTVLGQPKAAPSVTLFPPSSEELQANKATLVCLISDFYPGAVTVAWKADSSPVKAGVETTTPSKQSNNKYAASSYLSLTPEQWKSHRSYSCQVTHEGSTVEKTVAPTECS | -0.8 |  |  |  |  |  |  |  |  | 
12 | TPP-10847 (antibody, human IgG1, lambda) heavy: not shown light: QSVLTQPPSVSGAPGQRVTISCTGSSSNIGAGYDVHWYQQLPGTAPKLLIYGNSNRPSGVPDRFSGSKSGTSASLAITGLQAEDEADYYCQSYDSSLSGVVFGGGTKLTVLGQPKAAPSVTLFPPSSEELQANKATLVCLISDFYPGAVTVAWKADSSPVKAGVETTTPSKQSNNKYAASSYLSLTPEQWKSHRSYSCQVTHEGSTVEKTVAPTECS | 0 | -0.5 |  |  |  |  |  |  | -0.9 | 
13 | TPP-10355 (antibody, human IgG1, lambda) heavy: not shown light: QSVLTQPPSVSGAPGQRVTISCTGSSSNIGAGYDVHWYQQLPGTAPKLLIYGNSNRPSGVPDRFSGSKSGTSASLAITGLQAEDEADYYCAAWNPNPNPNPNPNGGSGGSLRRSSCFGGRMDRIGAQSGLGCNSFRYGSNPNPNPNPNPNVFGSGTKVTVLGQPKAAPSVTLFPPSSEELQANKATLVCLISDFYPGAVTVAWKADSSPVKAGVETTTPSKQSNNKYAASSYLSLTPEQWKSHRSYSCQVTHEGSTVEKTVAPTECS |  | -0.2 |  |  | -0.6 | 0.2 |  | -0.3 |  | 
